What was measured:
[1] = substrate: O=c1c(OS(=O)(=O)O)c(-c2ccc(OS(=O)(=O)O)c(OS(=O)(=O)O)c2)oc2cc(OS(=O)(=O)O)cc(OCc3ccc(COc4cc(OS(=O)(=O)O)cc5oc(-c6ccc(OS(=O)(=O)O)c(OS(=O)(=O)O)c6)c(OS(=O)(=O)O)c(=O)c45)cc3)c12; conditions: Homo sapiens; 200 uM
[2] = substrate: O=c1c(OS(=O)(=O)O)c(-c2ccc(OS(=O)(=O)O)c(OS(=O)(=O)O)c2)oc2cc(OS(=O)(=O)O)cc(OCc3ccc(COc4cc(OS(=O)(=O)O)cc5oc(-c6ccc(OS(=O)(=O)O)c(OS(=O)(=O)O)c6)c(OS(=O)(=O)O)c(=O)c45)cc3)c12; conditions: Homo sapiens; 40 uM
[3] = substrate: O=c1c(OS(=O)(=O)O)c(-c2ccc(OS(=O)(=O)O)c(OS(=O)(=O)O)c2)oc2cc(OS(=O)(=O)O)cc(OCc3ccc(COc4cc(OS(=O)(=O)O)cc5oc(-c6ccc(OS(=O)(=O)O)c(OS(=O)(=O)O)c6)c(OS(=O)(=O)O)c(=O)c45)cc3)c12; conditions: Homo sapiens; 200 uM; remark: listed apart in the source
[4] = substrate: O=c1c(OS(=O)(=O)O)c(-c2ccc(OS(=O)(=O)O)c(OS(=O)(=O)O)c2)oc2cc(OS(=O)(=O)O)cc(OCc3ccc(COc4cc(OS(=O)(=O)O)cc5oc(-c6ccc(OS(=O)(=O)O)c(OS(=O)(=O)O)c6)c(OS(=O)(=O)O)c(=O)c45)cc3)c12; conditions: Homo sapiens; 100 uM
[5] = substrate: O=c1c(OS(=O)(=O)O)c(-c2ccc(OS(=O)(=O)O)c(OS(=O)(=O)O)c2)oc2cc(OS(=O)(=O)O)cc(OCc3ccc(COc4cc(OS(=O)(=O)O)cc5oc(-c6ccc(OS(=O)(=O)O)c(OS(=O)(=O)O)c6)c(OS(=O)(=O)O)c(=O)c45)cc3)c12; conditions: Homo sapiens; 8 uM
Description: Uncompetitive allosteric inhibition of human plasmin assessed as substrate Km at 8 uM using chromogenic substrate spectrozyme PL by Michaelis-Menten plot analysis

[6] = substrate: O=c1c(O)c(-c2ccc(O)c(O)c2)oc2cc(O)cc(OCc3ccc(COc4cc(O)cc5oc(-c6ccc(O)c(O)c6)c(O)c(=O)c45)cc3)c12; conditions: Homo sapiens; 400 uM
[7] = substrate: O=c1c(O)c(-c2ccc(O)c(O)c2)oc2cc(O)cc(OCc3ccc(COc4cc(O)cc5oc(-c6ccc(O)c(O)c6)c(O)c(=O)c45)cc3)c12; conditions: Homo sapiens; 100 uM
[8] = substrate: O=c1c(O)c(-c2ccc(O)c(O)c2)oc2cc(O)cc(OCc3ccc(COc4cc(O)cc5oc(-c6ccc(O)c(O)c6)c(O)c(=O)c45)cc3)c12; conditions: Homo sapiens; 100 uM; remark: listed apart in the source
[9] = substrate: O=c1c(O)c(-c2ccc(O)c(O)c2)oc2cc(O)cc(OCc3ccc(COc4cc(O)cc5oc(-c6ccc(O)c(O)c6)c(O)c(=O)c45)cc3)c12; conditions: Homo sapiens; 240 uM
Description: Competitive allosteric inhibition of human plasmin assessed as Vmax for substrate hydrolysis at 240 uM using chromogenic substrate spectrozyme PL by Michaelis-Menten plot analysis

[10] = substrate: O=c1c(O)c(-c2ccc(O)c(O)c2)oc2cc(O)cc(OCc3ccc(COc4cc(O)cc5oc(-c6ccc(O)c(O)c6)c(O)c(=O)c45)cc3)c12; conditions: Homo sapiens; 400 uM; remark: listed apart in the source
[11] = substrate: O=c1c(OS(=O)(=O)O)c(-c2ccc(OS(=O)(=O)O)c(OS(=O)(=O)O)c2)oc2cc(OS(=O)(=O)O)cc(OCc3ccc(COc4cc(OS(=O)(=O)O)cc5oc(-c6ccc(OS(=O)(=O)O)c(OS(=O)(=O)O)c6)c(OS(=O)(=O)O)c(=O)c45)cc3)c12; conditions: Homo sapiens; 1.6 uM
Description: Uncompetitive allosteric inhibition of human plasmin assessed as Vmax for substrate hydrolysis at 1.6 uM using chromogenic substrate spectrozyme PL by Michaelis-Menten plot analysis

[12] = substrate: O=c1c(O)c(-c2ccc(O)c(O)c2)oc2cc(O)cc(OCc3ccc(COc4cc(O)cc5oc(-c6ccc(O)c(O)c6)c(O)c(=O)c45)cc3)c12; conditions: Homo sapiens; 240 uM; remark: listed apart in the source
Description: Uncompetitive allosteric inhibition of human plasmin assessed as substrate Km at 240 uM using chromogenic substrate spectrozyme PL by Michaelis-Menten plot analysis

[13] = substrate: O=c1c(OS(=O)(=O)O)c(-c2ccc(OS(=O)(=O)O)c(OS(=O)(=O)O)c2)oc2cc(OS(=O)(=O)O)cc(OCc3ccc(COc4cc(OS(=O)(=O)O)cc5oc(-c6ccc(OS(=O)(=O)O)c(OS(=O)(=O)O)c6)c(OS(=O)(=O)O)c(=O)c45)cc3)c12; conditions: Homo sapiens; 100 uM; remark: listed apart in the source
[14] = substrate: O=c1c(OS(=O)(=O)O)c(-c2ccc(OS(=O)(=O)O)c(OS(=O)(=O)O)c2)oc2cc(OS(=O)(=O)O)cc(OCc3ccc(COc4cc(OS(=O)(=O)O)cc5oc(-c6ccc(OS(=O)(=O)O)c(OS(=O)(=O)O)c6)c(OS(=O)(=O)O)c(=O)c45)cc3)c12; conditions: Homo sapiens; 1.6 uM; remark: listed apart in the source
Description: Uncompetitive allosteric inhibition of human plasmin assessed as substrate Km at 1.6 uM using chromogenic substrate spectrozyme PL by Michaelis-Menten plot analysis

[15] = substrate: O=c1c(OS(=O)(=O)O)c(-c2ccc(OS(=O)(=O)O)c(OS(=O)(=O)O)c2)oc2cc(OS(=O)(=O)O)cc(OCc3ccc(COc4cc(OS(=O)(=O)O)cc5oc(-c6ccc(OS(=O)(=O)O)c(OS(=O)(=O)O)c6)c(OS(=O)(=O)O)c(=O)c45)cc3)c12; conditions: Homo sapiens; 40 uM; remark: listed apart in the source
[16] = substrate: O=c1c(OS(=O)(=O)O)c(-c2ccc(OS(=O)(=O)O)c(OS(=O)(=O)O)c2)oc2cc(OS(=O)(=O)O)cc(OCc3ccc(COc4cc(OS(=O)(=O)O)cc5oc(-c6ccc(OS(=O)(=O)O)c(OS(=O)(=O)O)c6)c(OS(=O)(=O)O)c(=O)c45)cc3)c12; conditions: Homo sapiens; 8 uM; remark: listed apart in the source
Description: Uncompetitive allosteric inhibition of human plasmin assessed as Vmax for substrate hydrolysis at 8 uM using chromogenic substrate spectrozyme PL by Michaelis-Menten plot analysis

B1: Plasminogen (Homo sapiens), P00747 (protein)
chain: MEHKEVVLLLLLFLKSGQGEPLDDYVNTQGASLFSVTKKQLGAGSIEECAAKCEEDEEFTCRAFQYHSKEQQCVIMAENRKSSIIIRMRDVVLFEKKVYLSECKTGNGKNYRGTMSKTKNGITCQKWSSTSPHRPRFSPATHPSEGLEENYCRNPDNDPQGPWCYTTDPEKRYDYCDILECEEECMHCSGENYDGKISKTMSGLECQAWDSQSPHAHGYIPSKFPNKNLKKNYCRNPDRELRPWCFTTDPNKRWELCDIPRCTTPPPSSGPTYQCLKGTGENYRGNVAVTVSGHTCQHWSAQTPHTHNRTPENFPCKNLDENYCRNPDGKRAPWCHTTNSQVRWEYCKIPSCDSSPVSTEQLAPTAPPELTPVVQDCYHGDGQSYRGTSSTTTTGKKCQSWSSMTPHRHQKTPENYPNAGLTMNYCRNPDADKGPWCFTTDPSVRWEYCNLKKCSGTEASVVAPPPVVLLPDVETPSEEDCMFGNGKGYRGKRATTVTGTPCQDWAAQEPHRHSIFTPETNPRAGLEKNYCRNPDGDVGGPWCYTTNPRKLYDYCDVPQCAAPSFDCGKPQVEPKKCPGRVVGGCVAHPHSWPWQVSLRTRFGMHFCGGTLISPEWVLTAAHCLEKSPRPSSYKVILGAHQEVNLEPHVQEIEVSRLFLEPTRKDIALLKLSSPAVITDKVIPACLPSPNYVVADRTECFITGWGETQGTFGAGLLKEAQLPVIENKVCNRYEFLNGRVQSTELCAGHLAGGTDSCQGDSGGPLVCFEKDKYILQGVTSWGLGCARPNKPGVYVRVSRFVTWIEGVMRNN
Question: For B1, which Km [1] is on record?
Answer: 4 µM

Question: What about the Km [2] of the same protein?
Answer: 20 µM

Question: And the Vmax [3]?
Answer: 10.4 mAU/min

Question: What about the Km [4] of the same protein?
Answer: 8 µM

Question: What about the Km [5] of the same protein?
Answer: 20 µM

Question: What about the Vmax [6] of the same protein?
Answer: 51.3 mAU/min

Question: What about the Vmax [7] of the same protein?
Answer: 51 mAU/min

Question: And the Km [8]?
Answer: 357 µM

Question: What about the Vmax [9] of the same protein?
Answer: 51.7 mAU/min

Question: And the Km [10]?
Answer: 1120 µM

Question: What about the Vmax [11] of the same protein?
Answer: 36.3 mAU/min

Question: And the Km [12]?
Answer: 807 µM

Question: And the Vmax [13]?
Answer: 15.1 mAU/min

Question: And the Km [14]?
Answer: 50 µM

Question: What about the Vmax [15] of the same protein?
Answer: 22.1 mAU/min

Question: And the Vmax [16]?
Answer: 29 mAU/min

From ChEMBL document CHEMBL4043061, “Potent, Selective, Allosteric Inhibition of Human Plasmin by Sulfated Non-Saccharide Glycosaminoglycan Mimetics” (J Med Chem, 2017)
